In patent publication US20150344570A1 (published 2015):

T1: FcγRIIb (human, UniProt P31994 43-217)
T1 construct: extracellular domain; also called 2b; not shown: His tag at the C terminus
T1 sequence (looked up): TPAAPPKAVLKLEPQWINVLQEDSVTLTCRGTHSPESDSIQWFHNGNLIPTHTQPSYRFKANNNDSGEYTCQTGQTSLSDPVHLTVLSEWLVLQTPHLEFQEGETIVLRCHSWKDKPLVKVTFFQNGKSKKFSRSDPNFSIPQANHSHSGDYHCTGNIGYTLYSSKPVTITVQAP

T2: FcγRIIa H (human, UniProt P12318 34-217)
T2 construct: extracellular domain; also called FcγRIIa type H; 2aH; not shown: His tag at the C terminus
T2 sequence (looked up): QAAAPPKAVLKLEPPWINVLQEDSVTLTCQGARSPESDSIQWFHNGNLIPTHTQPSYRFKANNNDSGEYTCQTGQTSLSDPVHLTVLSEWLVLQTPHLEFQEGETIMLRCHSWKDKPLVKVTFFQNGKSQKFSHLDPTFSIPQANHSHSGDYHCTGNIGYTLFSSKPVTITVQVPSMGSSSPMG

B1: GpH7-A5/GpH7-B3 variant A330_11K/GpL16-k0 (antibody, human IgG1, kappa)
heavy 1: not shown
heavy 2: not shown
light: DIVMTQSPLSLPVTPGEPASISCQASESLVHSNRNTYLHWYLQKPGQSPQLLIYKVSNRFSGVPDRFSGSGSGTDFTLKISRVEAEDVGVYYCSQNTHVPPTFGQGTKVEIERTVAAPSVFIFPPSDEQLKSGTASVVCLLNNFYPREAKVQWKVDNALQSGNSQESVTEQDSKDSTYSLSSTLTLSKADYEKHKVYACEVTHQGLSSPVTKSFNRGEC
notes: Heterodimerized IgG1; mutation in the GpH7-B3 chain only; also called He Ab
B2: GpH7-A5/GpH7-B3 variant S324_20W/GpL16-k0 (antibody, human IgG1, kappa)
heavy 1: not shown
heavy 2: not shown
light: B1 light
notes: as for B1
B3: GpH7-A5/GpH7-B3 variant S324_02A/GpL16-k0 (antibody, human IgG1, kappa)
heavy 1: not shown
heavy 2: not shown
light: B1 light
notes: as for B1
B4: GpH7-A5/GpH7-B3 variant A330_19Q/GpL16-k0 (antibody, human IgG1, kappa)
heavy 1: not shown
heavy 2: not shown
light: B1 light
notes: as for B1
B5: GpH7-A5/GpH7-B3 variant Q295_07I/GpL16-k0 (antibody, human IgG1, kappa)
heavy 1: not shown
heavy 2: not shown
light: B1 light
notes: as for B1
B6: GpH7-A5/GpH7-B3 variant K326_12R/GpL16-k0 (antibody, human IgG1, kappa)
heavy 1: not shown
heavy 2: not shown
light: B1 light
notes: as for B1
B7: GpH7-A5/GpH7-B3 variant I332_18N/GpL16-k0 (antibody, human IgG1, kappa)
heavy 1: not shown
heavy 2: not shown
light: B1 light
notes: as for B1
B8: GpH7-A5/GpH7-B3 variant S324_09D/GpL16-k0 (antibody, human IgG1, kappa)
heavy 1: not shown
heavy 2: not shown
light: B1 light
notes: as for B1
B9: GpH7-A5/GpH7-B3 variant D270_10E/GpL16-k0 (antibody, human IgG1, kappa)
heavy 1: not shown
heavy 2: not shown
light: B1 light
notes: as for B1
B10: GpH7-A5/GpH7-B3 variant E333_13S/GpL16-k0 (antibody, human IgG1, kappa)
heavy 1: not shown
heavy 2: not shown
light: B1 light
notes: as for B1
B11: GpH7-A5/GpH7-B3 variant E333_08L/GpL16-k0 (antibody, human IgG1, kappa)
heavy 1: not shown
heavy 2: not shown
light: B1 light
notes: as for B1
B12: GpH7-A5/GpH7-B3 variant Y296_09D/GpL16-k0 (antibody, human IgG1, kappa)
heavy 1: not shown
heavy 2: not shown
light: B1 light
notes: as for B1
B13: GpH7-A5/GpH7-B3 variant A330_12R/GpL16-k0 (antibody, human IgG1, kappa)
heavy 1: not shown
heavy 2: not shown
light: B1 light
notes: as for B1
B14: GpH7-A5/GpH7-B3 variant I336_18N/GpL16-k0 (antibody, human IgG1, kappa)
heavy 1: not shown
heavy 2: not shown
light: B1 light
notes: as for B1
B15: GpH7-A5/GpH7-B3 variant Y296_04F/GpL16-k0 (antibody, human IgG1, kappa)
heavy 1: not shown
heavy 2: not shown
light: B1 light
notes: as for B1
B16: GpH7-A5/GpH7-B3 variant E333_09D/GpL16-k0 (antibody, human IgG1, kappa)
heavy 1: not shown
heavy 2: not shown
light: B1 light
notes: as for B1
B17: GpH7-A5/GpH7-B3 variant I332_19Q/GpL16-k0 (antibody, human IgG1, kappa)
heavy 1: not shown
heavy 2: not shown
light: B1 light
notes: as for B1
B18: GpH7-A5/GpH7-B3 variant Y296_16H/GpL16-k0 (antibody, human IgG1, kappa)
heavy 1: not shown
heavy 2: not shown
light: B1 light
notes: as for B1
B19: GpH7-A5/GpH7-B3 variant S324_10E/GpL16-k0 (antibody, human IgG1, kappa)
heavy 1: not shown
heavy 2: not shown
light: B1 light
notes: as for B1
B20: GpH7-A5/GpH7-B3 variant I332_16H/GpL16-k0 (antibody, human IgG1, kappa)
heavy 1: not shown
heavy 2: not shown
light: B1 light
notes: as for B1
B21: GpH7-A5/GpH7-B3 variant T335_02A/GpL16-k0 (antibody, human IgG1, kappa)
heavy 1: not shown
heavy 2: not shown
light: B1 light
notes: as for B1
B22: GpH7-A5/GpH7-B3 variant T335_01G/GpL16-k0 (antibody, human IgG1, kappa)
heavy 1: not shown
heavy 2: not shown
light: B1 light
notes: as for B1
B23: GpH7-A5/GpH7-B3 variant E333_14T/GpL16-k0 (antibody, human IgG1, kappa)
heavy 1: not shown
heavy 2: not shown
light: B1 light
notes: as for B1
B24: GpH7-A5/GpH7-B3 variant G236_20W/GpL16-k0 (antibody, human IgG1, kappa)
heavy 1: not shown
heavy 2: not shown
light: B1 light
notes: as for B1
B25: GpH7-A5/GpH7-B3 variant I336_03V/GpL16-k0 (antibody, human IgG1, kappa)
heavy 1: not shown
heavy 2: not shown
light: B1 light
notes: as for B1
B26: GpH7-A5/GpH7-B3 variant Y296_18N/GpL16-k0 (antibody, human IgG1, kappa)
heavy 1: not shown
heavy 2: not shown
light: B1 light
notes: as for B1
B27: GpH7-A5/GpH7-B3 variant H268_04F/GpL16-k0 (antibody, human IgG1, kappa)
heavy 1: not shown
heavy 2: not shown
light: B1 light
notes: as for B1
B28: GpH7-A5/GpH7-B3 variant E333_04F/GpL16-k0 (antibody, human IgG1, kappa)
heavy 1: not shown
heavy 2: not shown
light: B1 light
notes: as for B1
B29: GpH7-A5/GpH7-B3 variant T335_06M/GpL16-k0 (antibody, human IgG1, kappa)
heavy 1: not shown
heavy 2: not shown
light: B1 light
notes: as for B1
B30: GpH7-A5/GpH7-B3 variant I332_13S/GpL16-k0 (antibody, human IgG1, kappa)
heavy 1: not shown
heavy 2: not shown
light: B1 light
notes: as for B1
B31: GpH7-A5/GpH7-B3 variant S324_16H/GpL16-k0 (antibody, human IgG1, kappa)
heavy 1: not shown
heavy 2: not shown
light: B1 light
notes: as for B1
B32: GpH7-A5/GpH7-B3 variant S324_04F/GpL16-k0 (antibody, human IgG1, kappa)
heavy 1: not shown
heavy 2: not shown
light: B1 light
notes: as for B1
B33: GpH7-A5/GpH7-B3 variant Q295_05P/GpL16-k0 (antibody, human IgG1, kappa)
heavy 1: not shown
heavy 2: not shown
light: B1 light
notes: as for B1
B34: GpH7-A5/GpH7-B3 variant A330_16H/GpL16-k0 (antibody, human IgG1, kappa)
heavy 1: not shown
heavy 2: not shown
light: B1 light
notes: as for B1
B35: GpH7-A5/GpH7-B3 variant T335_05P/GpL16-k0 (antibody, human IgG1, kappa)
heavy 1: not shown
heavy 2: not shown
light: B1 light
notes: as for B1
B36: GpH7-A5/GpH7-B3 variant I332_03V/GpL16-k0 (antibody, human IgG1, kappa)
heavy 1: not shown
heavy 2: not shown
light: B1 light
notes: as for B1
B37: GpH7-A5/GpH7-B3 variant I336_10E/GpL16-k0 (antibody, human IgG1, kappa)
heavy 1: not shown
heavy 2: not shown
light: B1 light
notes: as for B1
B38: GpH7-A5/GpH7-B3 variant S324_15Y/GpL16-k0 (antibody, human IgG1, kappa)
heavy 1: not shown
heavy 2: not shown
light: B1 light
notes: as for B1

Columns and labels:
FcγRIIb = molecular target: T1, FcγRIIb; assay: SPR (Biacore), antibody captured, FcγR as analyte; binding relative to GpH7-A5/GpH7-B3/GpL16-k0 = 100
Procedure: (§1) The heterodimerized antibodies He Abs in which one of the H chains was introduced with an alteration were assayed for their binding activities to each activating FcγR and inhibitory FcγR according to the method described in Example 4. […] The activating FcγRs in FIGS. 26, 27, 28, and 29 are FcγRIa, FcγRIIa (R), FcγRIIa (H), and FcγRIIIa, respectively.
(§2) Analysis of interaction between objective antibody and the FcγR was carried out using Biacore T100 (GE Healthcare). HBS-EP+ (GE Healthcare) was used as the running buffer, and the measurement temperature was set to 25° C. Chips produced by immobilizing the antigen peptide by the amine coupling method to a Series S Sencor Chip CM5 (GE Healthcare), or alternatively, chips produced by allowing preliminarily biotinylated antigen peptides to interact with and immobilize onto a Series S Sensor Chip SA (certified) (GE Healthcare) were used. Antibodies of interest were captured onto an antigen peptide-immobilized chip, and allowed to interact to each FcγR diluted with running buffer. To regenerate and repeatedly use the chip, the antibodies captured on the chip were washed off by reacting 10 mM glycine-HCl, pH 1.5.

FcγRIIa H = molecular target: T2, FcγRIIa H; assay: as above
Procedure: as §1, §2

Row | Binder | He/Con_2b (FcγRIIb) | He/Con_2aH (FcγRIIa H)
1 | B1 | 95 % of control | 109 % of control
2 | B2 | 87.5 % of control | 103 % of control
3 | B3 | 78.3 % of control | 102 % of control
4 | B4 | 90.8 % of control | 102 % of control
5 | B5 | 84.3 % of control | 102 % of control
6 | B6 | 89.2 % of control | 101 % of control
7 | B7 | 89.9 % of control | 110 % of control
8 | B8 | 85.8 % of control | 106 % of control
9 | B9 | 76.5 % of control | 102 % of control
10 | B10 | 81.8 % of control | 101 % of control
11 | B11 | 95 % of control | 102 % of control
12 | B12 | 98.9 % of control | 104 % of control
13 | B13 | 84.8 % of control | 108 % of control
14 | B14 | 97.6 % of control | 103 % of control
15 | B15 | 99.2 % of control | 100 % of control
16 | B16 | 94.3 % of control | 103 % of control
17 | B17 | 94.3 % of control | 108 % of control
18 | B18 | 92.2 % of control | 104 % of control
19 | B19 | 77.4 % of control | 103 % of control

Row | Binder | He/Con_2b (FcγRIIb) | He/Con_2aH (FcγRIIa H)
20 | B20 | 93 % of control | 109 % of control
21 | B21 | 94 % of control | 101 % of control
22 | B22 | 96.7 % of control | 103 % of control
23 | B23 | 86.1 % of control | 100 % of control
24 | B24 | 58.2 % of control | 147 % of control
25 | B25 | 90.3 % of control | 102 % of control
26 | B26 | 91.5 % of control | 104 % of control
27 | B27 | 89.6 % of control | 111 % of control
28 | B28 | 94.6 % of control | 102 % of control
29 | B29 | 99.4 % of control | 103 % of control
30 | B30 | 98.4 % of control | 110 % of control
31 | B31 | 83.5 % of control | 102 % of control
32 | B32 | 89.1 % of control | 101 % of control
33 | B33 | 67.5 % of control | 103 % of control
34 | B34 | 87.6 % of control | 101 % of control
35 | B35 | 99.9 % of control | 108 % of control
36 | B36 | 80.7 % of control | 105 % of control
37 | B37 | 89.8 % of control | 102 % of control
38 | B38 | 88.2 % of control | 102 % of control
